Laboratory results published in the DeepSol protein solubility set.

Assay: soluble on expression in E. coli; label from the status in PepcDB or PDB records

Soluble on expression in E. coli, not soluble:
MGSDKIHHHHHHMFLSIGTLPEDSRFHDAMVYFDMAHLSGTDRSQMLLLPEVVDDYVGPDNPVRFIEAFIDGLDLQASGFIRVEPKLTSRPGYDPADLLKLYLYGYLNRVRSSRRLEAETHRNIEVIWLLRRLTPDHKTIANFRRVNHAAFRQVFREFVILCRQLDLFGRELLAVDGTRIKAVNNKERNFTRAALTKFIREADERLTEYMKRLDNGDAQEENTGGGGPRAKNLAEKITAIKGKRDRHKALLDELDRTGEDQISLTDMDSRAMARMTKVGVGYNIQLAVDVKHKLIAEQEVSNQVVDMGLLTQATQAAMDNLGVEQIEVVADRGYFKVEDIEACEKAGITAYVPKPLRGAAVREGFFSKDEFRYNAEKDVYVCPAGEHLSPRYEKKTRDLKLVEYCNREACRSCDLKAHCTHGYRRVGRVENEAVLDRMAARLAARPEVLDQRRETVEHPFGTIKQWMYQGSFLMRRLENVQGEFSLTALAYNIRRAITLVGVAGLIGAVRA
MGSDKIHHHHHHMFSMTKDWREQRILDSSEFTHADWLQAAQRIVILGRLNEDELTRLFELATLFLADKSITGAQGFEITDAVKQSIALQACLPILNLSLEWYAGWSAIIIYPGSYKSETTTVDELGIVHEGSQHRSGEAWLRGPVILSWKDAKHSGERDGHNVVIHEFVHKLDMLNGRANGFPPLQPDMDPVRWTEIMTRDFEDFQSHHKSGFDRYGATNPAEFFAVLSEVFFETPQKLIDAYPDIYEIMVKFFRQTPLEPRP
MGSDKIHHHHHHMFSYEKVQTLNQLELFVYKYVTSHLEECKTMTIRDLSTQSHVSSTTILRFLKKMGFEGFSDFKYVLRHRNDRTPASELSQDLGPIGQFLKQTATTEYTEKMEEVARVVAQSNTRLFFGMGSSGSMAQYGARILSNYGMLTLAITDPFQPQPISERDYSKTLIILLSVSGETEGVLTQANYYRQNGAKIVAITANSTSTLAQIADYSLTYDIPENKVGSLNFTSQIPVVYLLEQLGEKTSKLVYHPEISHEI
MGSDKIHHHHHHMFTQVYEEIRQLTISKVLDFYDHEVRRLDEAARQTKYQKMSASPFLFFRGSSHLFYYDVTRIPLGFDTPPETPTWIQGDLHFENFGVHGNAKGEIIYDVNDFDEGYLGSYLYDLIRMAVSVQLFAEEAGYDAKPAIAAYVQHYLDDLRQYAKGKNPSKVCFTTDNTKGPIRKLIKKAEKKKAELLGERTTVVDGQRRFADLPDMKRLDSSAYTAIEAVWPEYIASIDAEDRQEDGFYAIKDIVYKLDSGTASIGLERYYILVEGTGGEHEDLILEMKQAQSSVPSLFVPAYLQEVETVHQGRRIVTSQKAMQAHEDPYLGYVTMHGKEYYVRERSPYKKKLKAKHIKSQDDLENVLSIQGQITAKIHARADMDAGVDVDILHHHADVVIIESIGVSDAEFIRQIQRWSSAYAARTTLDFQVFLSWLANR
MGSDKIHHHHHHMFVNRKEELEFLERKWREEGAQLIIIYGRRRIGKTMLLKEFLKGKRGIYFLATADSMAENIRGLAEKFTKLTRREYFMEVRDFRRLFRYLAEEMGKERVAVVLDEFQYLISLDPGILSVLQKIWDEYLKDTGIFLILCGSSIGMMERTLEYKSPLYGRRTGAWKVKPFDIRGIAEMFPERSMEELVKIYAVFGGVPFYLDLIRNLSVENAIKERILKKGEILYEEPEFLLREELREPRVYKLILKGLALGYESLGELINFTGLDRGNLSKYLDTLERLELVGYELPYGKRKRGQYYIRDNFFNFWFRFVYPNLADLELGLVNEVWERISGEINAYYGKMFERLVREMLRLRILDFGQKGVSRWWHRGEEIDAIAELKDKLLFVEVKWKDLNRREARKILKDLKRKSERFEGEKEFLLIAKRIEDKEEGMLDLEDLEKVIRNL
MGSDKIHHHHHHMFVTELRFECFADTSIEAAEKAINNFLEALRANGQVLGREFAVAFNDGEFRVRLLIPERSSLANRYNSPWVKVALNGLTEAKILAPREKFIGQDINSEASNTHQPSWQLLYTSYVHMCSPLRNGDNLLPIPLYQIPATFNGDHKRMIKWQSEWQACDELQMAAATKAEFAALDEISNTDSDLFRRGWDLRGRIEYLTKIPTYYYLYRVGGESLNAELSRPCPKCGSLEWKLAEPLLDMFQFRCEPCRIVSNLSWDHQ
MGSDKIHHHHHHMFYIMPAWENEVSELNRDLLKNLTNVFVGGKKSVKLAVLNFLPNLRYLLHVNGLTNYEYWNIWDAILGIERVDGMPLGPEALDLPQGVRLINAMTSMDAYEGSKLYARIIRSSEGYLSEVQFMNPQNRHTDVYDDRGFKVCTNYYENEEVVRQEWFNECNQLIVRYEPKAKVAVQILGNYSNFEKRQYKTLNELLMEFVNSFFEEHFDPTQDRLIASTNLKIRPLMVEIQNRLPVTYLLDHLGPMDTTTVETLQPQIQGAFKFVVPNYVIFQQIKSSVAEPAQKVLKLGYPYGTENRLGNSNEESKMFIYWHIDESTNDTTCSQFAEKLIDYSLEHENVGLQVAALNDRQANLVFNYLCQALKNKYTFLDLEQDQDLIWKIVFGREDTDAIGKLLMQLKFRLGMNLKHDPETNPQKLADSARFKKINWKKVMEDITETIIRVNSRDNEIYRNLARSRVLVDVGSPYNTRMQFNAISAGIPQIVNVDSPFIINRKNGWIINEKQSLSQGLDFYLQELGNWNKSLVATTKYMEQLTLKRQADWWERRTKYEK
MGSDKIHHHHHHMGAGELLQDWRVHALRIEDEVSRVVIGQPQTIRLITVALFARGHVLLEGGVGVGKTTVLRAFARVVGGEFERVEGTIDLMPGDLVYHTYVDAEGRPRIDPGPLLRHGERLTTFFFNEINRARPQVQSLLLRAMAERSVWAFDREYRFPHMTVFADRNKVEKEETFELASAARDRFLFELGMPTPTEPDVRRSLVFDAAFHDVDSLLARLPPAIVQWEQLNQVGAAIQESVQSSETIERYVLDIWQATETPQRFGIALDGVDMDRLILAGASPRGMSALLRAARVVAWLAGRSHLVPEDIHAVLMPALGHRVFFTPIYELRRQELAEALMTQIMNRLAVP
MGSDKIHHHHHHMGEHFLLEMVDITKEFPGVKALDRVQLKVRKGSVHALMGENGAGKSTLMKILIGMYKPNEGKIIFDGEEVTFNSINDALDKGISMIHQELSPIPEMTVAENIFLGREPTFGKSGLVDNKKLIEMTRNLLESLEINIDPRKKMGELSIANTQMIEIAKAISFHSKLVIMDEPTSAITEKEVAQLFKMIESLKKKGVGIIYITHKMSELDEIADDISVFRDGKYIGTDTAKNLTRDDLIKMMVGRELNQIFDKPEPKLGEVILSVKSLTKQDYFEDVSFEVRKGEIVGFAGLMGSGRTEVLETIFGVKEAESGEIFVNGQKARIKSPQDAVKNNMGFLTEDRKLTGLFLPLSVRENMITVNIDKYINMGWLNGKRVKKDCEQQKQKLYIKTPSIEQIVENLSGGNQQKVLLARWLLKNPDILFLDEPTRGIDVGAKSEFYNLIFELASQGKAIVVVSSEMAEILGLCDRILVMHEGKVTGELTREEANQEKIMQYATGQAKMAKKLHVHNNFEQTVTANKIEIG
MGSDKIHHHHHHMGGRGSGKTRAGAEWVSGMALGLPPFAGKPSGHIALVGETFNDAREVMVDGPSGILSVSRLVRPRYEASRRRLIWDNGAVATLFSSEDPDSLRGPQFDAAWCDELAKWKNPQETWDMLQFGLRLGDNPRQVVTTTPRAVPLLKALLTDRTVSMTHMRTAENAGNLAEGFMQTIARRYAGTRLGRQELDGELVEERPGALWSRDRIEQCFEENPPPLARIVVAVDPPASSGKASDACGIVVAGIDAEGVGHVLADESMTMAKPHQWARRAIALYHTHEADAIVAEVNQGGEMVAAEDPSVPVLKRRASRGKWLRAEPVAALYEQGRVRHAGRFPALEDEMCDFAPEGLSSGRSPDRLDALVWALGELMLGADHKPRIRRFG
MGSDKIHHHHHHMGIRVSTISRCIGHLEDEIGVALFLRRPNGVTLTFAGEQFLVRARRAMTEVRHAICEAGIAGTGRNGFVRLGLLSSLAAPFPAMLIKIYCAAYPGVRILYSEGGAADHRAALQHHRLDLAFLPHPEKAEGCDALGLWEERLFAAMAQDDPLTRHDVVTWDDLRERHFIFSEVPPGPELLDYLTERLVGFGFLLKADLLTVYRDTVMRVIANGSDVTVIGEARVSHPIQGVACRPITGESLFFHAVWLPTNDNPAFRRFLSLAKVLSKQCSVCELKEGLAGPSGEDHSVMDETSASLERKSRLLKIVSERCATCLLKKAIAD
MGSDKIHHHHHHMGKGFTGAILTVMGVKSHIATTTGKTVINDRMVTIHFHSETLLNTEGEVPGDWLRLWFPHESRPGKLYQRAYTLTNVDADAGTFDLAFVLHEPLGPASAWATRCEAGESLEVMRYPGIPFAIPDPAPRGFLFLGDLTSYPAICSILETLDGEIPATAYLIAHDPLDYTFDFPQGEHITAQWISNEQSFIDHIADTDYTDFYTWIGAESSETRAAKKHLQTHAGMPKTHMNAQGYWNKGRAMGKSN
MGSDKIHHHHHHMGKLLAINISKERGTEKREVPQAELVADYGIMGDAHAGKWHRQVSLLSAEKIDAFRARGAQIDNGAFGENLIISGFDFKNLPLGTRFCIGDAILEMTQIGKQCHSHCAIYKRMGECIMPKEGVFAVVIRGGQIHTGDEVKLIPANIYASIKDRPADSRCELLTVTEGAHAGEKALYIDGRIRVASGSAWADEINDNDNSIVMFKQQIGSRPRLIICGGGHVSAALVRMASLLAFDIWVIEDRPLFADNAKRQGADHVICGDYKKTLARLEPQADDYYVCMTRGHRFDMECLTEIFRKPYAYVGMMGSKKRAAIVKKDLEESGFSRENISGLHSPIGLAIGGQTPEEIALSVISEIVKCKNERTGCTQVDNEVLDALIEASDEKYILCTIIKKNGSAPRGVGTQMLVSSDNRIIGTIGGGCAEAEVISQCRRLFRKQEFKCGLMDVSMNTDDAEKEGMVCGGSISVLLEQLG
MGSDKIHHHHHHMGNAAASTRAICHRRCSTYPRMNDFQSLSTEESPAPAGTNPAVNPIARIHGEPVTEIPSDLYIPPDALEVFLDTFQGPLDLLLYLIRKHNLDVLDIAMAELTRQYLAYIEMMRANKLELAAEYLLMAAVLIEIKSRMLLPKPVAKGNEDEVDPRAELVRRLLEYEQMKVAGQKLNKLPQAERDFALTNVWIEQKVIERLPEVNADDLRNAWLILMARLNVNRRHNITREELSVREHMTRILRHVQGHHFVEFSDLFNAAAGAAELVVTFLALLELVKERQVEVSQPSAFGMIYVRPISVLTTV
MGSDKIHHHHHHMGNRQRILPLGVQAPATLEGYYPCPNAAALHAVLKLVAEPQGLCLYLYGPGGVGKSHLLLGAASALAGWTPYMDCGDVPQLFNRIKDLEGFSSLVAAPLLCLDNIEVWAGQRDKETFLFDLYNERMSNGRPMLLAGRAAPRFLDWALPDWASRASACLQVALRLPDDTERMAILQEMAQRRGLQIGVEAAHYLLRHHARDPRTLDGLLTILDAGSWEHQREVTIPFIRLCLGAEKP
MGSDKIHHHHHHMGNTINLSRFYKACNPSYTLNMGVMLDRQYYIDFANVRGCKIVEELQRTISRISPDEPTCQLFTGHIGCGKSTELQRLKTELETAGFHVVYFESSQDLDMADIDVSDILLSVARQVCVSLEAIGIKLKPGYFNNLFKEIGDFLQAPIELSGEAEFSLGIAKITAKTKDSTQLRNQLRQYLEPRTNNILQAINEEILEKAVEQLKRRGQKGLVVIVDNLDRVDMRPVASGRTQPEYLFIDRGEQLRRLKCHVVYTIPLALIFSSEYETLKNRLGGGIAPKVLPMVLVRQRDGSDYEPGMSLLRQLVLARAFPEVASQERQQLITELFEQTETLDRLCRVSGGHIRNLLGLLYSCLQRQDPPFSRDCLEAVIKDYRDDLLLAIDECQWELLFDVMQQQSVKGESDYQSLLRSMYLFEYRDPVGRWFGISPALAETEKVLAWRESK
